The values that follow come from patent publication US20250002594A1 (SHANGHAI EPIMAB BIOTHERAPEUTICS, published 2025).

One assay has as its target T1, recombinant human CD122 (human, UniProt P14784 27-239, limits assumed).
T1 construct: also called IL-2Rβ
T1 sequence (looked up): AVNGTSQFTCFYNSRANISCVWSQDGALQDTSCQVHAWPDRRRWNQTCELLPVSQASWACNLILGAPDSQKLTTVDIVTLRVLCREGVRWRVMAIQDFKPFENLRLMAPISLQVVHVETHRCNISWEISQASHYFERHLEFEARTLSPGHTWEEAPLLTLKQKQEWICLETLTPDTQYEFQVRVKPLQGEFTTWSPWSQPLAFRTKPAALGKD
Put plainly: GCI (WAVEsystem). As for the experimental part:
(§1) Binding affinity and kinetics constants of humanized CD122/CD132 FIT-Ig were determined using a label-free biosensor on WAVEsystem (Creoptix AG, Switzerland) by grating-coupled interferometry (GCI). Briefly, a PCP WAVEchip (Creoptix AG) was pre-immobilized with goat anti-human IgG Fc antibody to a density of 3830 pg/mm² by amine coupling, and used to capture humanized CD122/CD132 FIT-Ig generated from Example 3.2.1 to a density of ˜90 pg/mm², then exposed to recombinant human/cyno CD122 or CD132 serially diluted (3× dilutions from 200 nM to […] for human CD122, human CD132 and cyno CD132, respectively; and from 1000 nM to 1.37 nM for cyno CD122) in 1X HBS-EP+ buffer (Cytiva, Cat No. BR100669) by injection at 60 μL/min for 250s to assess association, followed by 1200s dissociation. After each round of association and dissociation, WAVEchip surface was regenerated by subject to pH 1.5 Glycine-HCl buffer injection at 60 μL/min for 120s. Sensorgrams were recorded at 25° C., the data were analyzed on WAVEcontrol (Creoptix AG) and double referenced by subtracting the signals from blank injections and the reference channel. A Langmuir 1:1 model was used for data fitting.

The target of another assay is T2, recombinant human CD132 (human, UniProt P31785 23-262, limits assumed).
T2 construct: also called IL-2Rγ
T2 sequence (looked up): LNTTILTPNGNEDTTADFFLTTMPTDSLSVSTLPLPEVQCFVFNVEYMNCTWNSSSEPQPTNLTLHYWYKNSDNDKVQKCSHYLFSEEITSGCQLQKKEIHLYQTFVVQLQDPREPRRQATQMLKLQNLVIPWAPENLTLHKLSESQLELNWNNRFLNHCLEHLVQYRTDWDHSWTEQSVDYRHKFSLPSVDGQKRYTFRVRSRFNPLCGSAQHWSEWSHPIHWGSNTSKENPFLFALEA
Put plainly: GCI (WAVEsystem). As for the experimental part: as §1

The target of assay [1] is T3, CD122/CD132 complex on HEK-Blue IL-2 cells (UniProt P14784 27-551; P31785 23-369, limits assumed).
T3 sequence (looked up) 1: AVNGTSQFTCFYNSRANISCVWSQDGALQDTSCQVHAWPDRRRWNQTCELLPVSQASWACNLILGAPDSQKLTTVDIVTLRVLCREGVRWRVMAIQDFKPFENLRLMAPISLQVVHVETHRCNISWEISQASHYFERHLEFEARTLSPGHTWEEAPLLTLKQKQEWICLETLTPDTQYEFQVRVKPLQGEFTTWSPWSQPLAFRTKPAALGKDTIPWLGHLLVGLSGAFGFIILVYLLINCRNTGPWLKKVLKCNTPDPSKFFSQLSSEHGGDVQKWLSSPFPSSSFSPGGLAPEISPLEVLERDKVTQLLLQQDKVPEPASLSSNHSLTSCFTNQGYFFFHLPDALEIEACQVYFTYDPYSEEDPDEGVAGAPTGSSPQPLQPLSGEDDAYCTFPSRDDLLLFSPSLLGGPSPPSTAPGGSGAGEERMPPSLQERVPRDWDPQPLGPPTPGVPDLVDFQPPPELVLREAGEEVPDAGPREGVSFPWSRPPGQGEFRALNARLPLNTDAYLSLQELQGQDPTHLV
T3 sequence (looked up) 2: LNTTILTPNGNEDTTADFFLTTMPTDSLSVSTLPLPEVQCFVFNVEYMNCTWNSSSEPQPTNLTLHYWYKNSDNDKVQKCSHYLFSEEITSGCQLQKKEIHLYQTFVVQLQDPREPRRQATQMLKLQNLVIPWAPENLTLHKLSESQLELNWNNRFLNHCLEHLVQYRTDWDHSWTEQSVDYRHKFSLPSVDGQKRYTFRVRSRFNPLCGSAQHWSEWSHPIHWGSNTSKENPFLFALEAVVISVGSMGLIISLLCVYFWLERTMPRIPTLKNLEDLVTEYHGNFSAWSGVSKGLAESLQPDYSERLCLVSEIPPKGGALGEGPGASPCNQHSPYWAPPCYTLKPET
Put plainly: cell-based or functional assay.

B1: huFIT2019-86b-27 (bispecific antibody, human IgG1, kappa, L234A L235A)
chain 1: not shown
chain 2: EVQLVQSGAEVKKPGASVKVSCKASGYTFTDYVISWVKQATGQGLEWIGEIYPGDAQTYYNEMFKGRATLTADKSISTAYMELSSLRSEDTAVYYCARGSYTYDNYAMDFWGQGTTVTVSSASTKGPSVFPLAPSSKSTSGGTAALGCLVKDYFPEPVTVSWNSGALTSGVHTFPAVLQSSGLYSLSSVVTVPSSSLGTQTYICNVNHKPSNTKVDKKVEPKSC
chain 3: not shown
For the molecule B1, the binding result in the assay with recombinant human CD122 and with recombinant human CD132 was “binds” throughout.

B2: huFIT2019-86b-46 (bispecific antibody, human IgG1, kappa, L234A L235A)
chain 1: not shown
chain 2: EVQLVQSGAEVKKPGASVKVSCKASGYTFTDYVISWVRQATGQGLEWMGEIYPGDANTYYNEMFKGRVTMTRDTSISTAYMELSSLRSEDTAVYYCARGSYTYDNYAMDFWGQGTTVTVSSASTKGPSVFPLAPSSKSTSGGTAALGCLVKDYFPEPVTVSWNSGALTSGVHTFPAVLQSSGLYSLSSVVTVPSSSLGTQTYICNVNHKPSNTKVDKKVEPKSC
chain 3: not shown
Turning to B2, the “EC50 from SEAP reporter gene assay” value in assay [1] was found to be 0.119 nM. Further, the binding result with recombinant human CD132 is “binds”.

B3: huFIT2019-86b-33 (bispecific antibody, human IgG1, kappa, L234A L235A)
chain 1: not shown
chain 2: EVQLVQSGAEVKKPGASVKVSCKASGYTFTDYVISWVRQATGQGLEWMGEIYPGDGNTYYNEMFKGRVTMTRDTSISTAYMELSSLRSEDTAVYYCARGSYTYDNYAMDFWGQGTTVTVSSASTKGPSVFPLAPSSKSTSGGTAALGCLVKDYFPEPVTVSWNSGALTSGVHTFPAVLQSSGLYSLSSVVTVPSSSLGTQTYICNVNHKPSNTKVDKKVEPKSC
chain 3: not shown
Consider B3, for which the binding result with recombinant human CD122 and with recombinant human CD132 was “binds” throughout.

B4: huFIT2019-86b-35 (bispecific antibody, human IgG1, kappa, L234A L235A)
chain 1: not shown
chain 2: EVQLVQSGAEVKKPGASVKVSCKASGYTFTDYVISWVRQATGQGLEWMGEIYPGDGNTYYNEMFKGRVTMTRDTSISTAYMELSSLRSEDTAVYYCARGSYTYDNYAMDFWGQGTTVTVSSASTKGPSVFPLAPSSKSTSGGTAALGCLVKDYFPEPVTVSWNSGALTSGVHTFPAVLQSSGLYSLSSVVTVPSSSLGTQTYICNVNHKPSNTKVDKKVEPKSC
chain 3: not shown
As to B4, in assay [1], the “EC50 from SEAP reporter gene assay” value is 0.163 nM. In addition, the binding result with recombinant human CD132 is listed as “binds”.

B5: huFIT2019-86b-36 (bispecific antibody, human IgG1, kappa, L234A L235A)
chain 1: not shown
chain 2: EVQLVQSGAEVKKPGASVKVSCKASGYTFTDYVISWVRQATGQGLEWMGEIYPGDGNTYYNEMFKGRVTMTRDTSISTAYMELSSLRSEDTAVYYCARGSYTYDNYAMDFWGQGTTVTVSSASTKGPSVFPLAPSSKSTSGGTAALGCLVKDYFPEPVTVSWNSGALTSGVHTFPAVLQSSGLYSLSSVVTVPSSSLGTQTYICNVNHKPSNTKVDKKVEPKSC
chain 3: not shown
B5: the binding result in the assay with recombinant human CD122 and in the assay with recombinant human CD132 was “binds” throughout.

B6: huFIT2019-86b-28 (bispecific antibody, human IgG1, kappa, L234A L235A)
chain 1: not shown
chain 2: EVQLVQSGAEVKKPGASVKVSCKASGYRFSDYVISWVKQATGQGLEWIGEIYPGDAQTYYNEMFKGRATLTADKSISTAYMELSSLRSEDTAVYFCARGSYTYDNYAMDFWGQGTTVTVSSASTKGPSVFPLAPSSKSTSGGTAALGCLVKDYFPEPVTVSWNSGALTSGVHTFPAVLQSSGLYSLSSVVTVPSSSLGTQTYICNVNHKPSNTKVDKKVEPKSC
chain 3: not shown
As to B6, the binding result with recombinant human CD122 and in the assay with recombinant human CD132 was “binds” in each case.

B7: huFIT2019-86b-30 (bispecific antibody, human IgG1, kappa, L234A L235A)
chain 1: not shown
chain 2: EVQLVQSGAEVKKPGASVKVSCKASGYTFTDYVISWVRQATGQGLEWMGEIYPGDAQTYYNEMFKGRVTMTRDTSISTAYMELSSLRSEDTAVYYCARGSYTYDNYAMDFWGQGTTVTVSSASTKGPSVFPLAPSSKSTSGGTAALGCLVKDYFPEPVTVSWNSGALTSGVHTFPAVLQSSGLYSLSSVVTVPSSSLGTQTYICNVNHKPSNTKVDKKVEPKSC
chain 3: not shown
Consider B7, for which the binding result in the assay with recombinant human CD122 and with recombinant human CD132 was “binds” each time.

B8: huFIT2019-86b-45 (bispecific antibody, human IgG1, kappa, L234A L235A)
chain 1: not shown
chain 2: EVQLVQSGAEVKKPGASVKVSCKASGYTFTDYVISWVRQATGQGLEWMGEIYPGDAQTYYNEMFKGRVTMTRDTSISTAYMELSSLRSEDTAVYYCARGSYTYDNYAMDFWGQGTTVTVSSASTKGPSVFPLAPSSKSTSGGTAALGCLVKDYFPEPVTVSWNSGALTSGVHTFPAVLQSSGLYSLSSVVTVPSSSLGTQTYICNVNHKPSNTKVDKKVEPKSC
chain 3: not shown
Consider B8, for which, in assay [1], the “EC50 from SEAP reporter gene assay” value turned out to be 0.106 nM. Besides, the binding result with recombinant human CD132 is given as “binds”.

B9: huFIT2019-86b-29 (bispecific antibody, human IgG1, kappa, L234A L235A)
chain 1: not shown
chain 2: EVQLVQSGAEVKKPGASVKVSCKASGYTFTDYVISWVRQATGQGLEWMGEIYPGDAQTYYNEMFKGRVTMTRDTSISTAYMELSSLRSEDTAVYYCARGSYTYDNYAMDFWGQGTTVTVSSASTKGPSVFPLAPSSKSTSGGTAALGCLVKDYFPEPVTVSWNSGALTSGVHTFPAVLQSSGLYSLSSVVTVPSSSLGTQTYICNVNHKPSNTKVDKKVEPKSC
chain 3: not shown
Turning to B9, the binding result in the assay with recombinant human CD122 and with recombinant human CD132 was “binds” throughout.

B10: huFIT2019-86b-32 (bispecific antibody, human IgG1, kappa, L234A L235A)
chain 1: not shown
chain 2: EVQLVQSGAEVKKPGASVKVSCKASGYTFTDYVISWVRQATGQGLEWMGEIYPGDGNTYYNEMFKGRVTMTRDTSISTAYMELSSLRSEDTAVYYCARGSYTYDNYAMDFWGQGTTVTVSSASTKGPSVFPLAPSSKSTSGGTAALGCLVKDYFPEPVTVSWNSGALTSGVHTFPAVLQSSGLYSLSSVVTVPSSSLGTQTYICNVNHKPSNTKVDKKVEPKSC
chain 3: not shown
notes: also called huFIT9-86b-32
For the molecule B10, the “EC50 from SEAP reporter gene assay” value in assay [1] was 0.163 nM. Moreover, the binding result with recombinant human CD132 is “binds”.

B11: huFIT2019-86b-34 (bispecific antibody, human IgG1, kappa, L234A L235A)
chain 1: not shown
chain 2: EVQLVQSGAEVKKPGASVKVSCKASGYTFTDYVISWVRQATGQGLEWMGEIYPGDGNTYYNEMFKGRVTMTRDTSISTAYMELSSLRSEDTAVYYCARGSYTYDNYAMDFWGQGTTVTVSSASTKGPSVFPLAPSSKSTSGGTAALGCLVKDYFPEPVTVSWNSGALTSGVHTFPAVLQSSGLYSLSSVVTVPSSSLGTQTYICNVNHKPSNTKVDKKVEPKSC
chain 3: not shown
In the case of B11, the binding result with recombinant human CD122 and with recombinant human CD132 was “binds” throughout.

B12: huFIT2019-86b-47 (bispecific antibody, human IgG1, kappa, L234A L235A)
chain 1: not shown
chain 2: EVQLVQSGAEVKKPGASVKVSCKASGYTFTDYVISWVRQATGQGLEWMGEIYPGEGNTYYNEMFKGRVTMTRDTSISTAYMELSSLRSEDTAVYYCARGSYTYDNYAMDFWGQGTTVTVSSASTKGPSVFPLAPSSKSTSGGTAALGCLVKDYFPEPVTVSWNSGALTSGVHTFPAVLQSSGLYSLSSVVTVPSSSLGTQTYICNVNHKPSNTKVDKKVEPKSC
chain 3: not shown
Regarding B12, the “EC50 from SEAP reporter gene assay” value in assay [1] amounted to 0.121 nM. For the same molecule, the binding result with recombinant human CD132 was “binds”.

B13: huFIT2019-86b-31 (bispecific antibody, human IgG1, kappa, L234A L235A)
chain 1: not shown
chain 2: EVQLVQSGAEVKKPGASVKVSCKASGYTFTDYVISWVRQATGQGLEWMGEIYPGDAQTYYNEMFKGRVTMTRDTSISTAYMELSSLRSEDTAVYYCARGSYTYDNYAMDFWGQGTTVTVSSASTKGPSVFPLAPSSKSTSGGTAALGCLVKDYFPEPVTVSWNSGALTSGVHTFPAVLQSSGLYSLSSVVTVPSSSLGTQTYICNVNHKPSNTKVDKKVEPKSC
chain 3: not shown
As to B13, the binding result in the assay with recombinant human CD122 and with recombinant human CD132 was “binds” throughout.
